Residue numbers refer to the chain shown, from its start. Where “and” joins values, the source holds several entries; their conditions need not be identical. Equal values may be shown once.
Key:
[1] = biological target: SARS-CoV-2 Spike protein on pseudotyped lentivirus (SARS-CoV-2, UniProt P0DTC2 14-1273); assay: cell-based or functional assay
[2] = biological target: T1, SARS-CoV-2 Spike receptor binding domain (RBD) (SARS-CoV-2, UniProt P0DTC2 319-541)
[3] = biological target: T1, SARS-CoV-2 Spike receptor binding …; assay: SPR, biotinylated RBD on a CAP chip
[4] = biological target: SARS-CoV-2 Spike protein on pseudotyped lentivirus (SARS-CoV-2, UniProt P0DTC2 14-1273); assay: cell-based or functional assay; remark: listed apart in the source

B1: Nb6 (AeroNab6, NbCOV6, clone pNbCOV006A) (VHH)
VHH: QVQLVESGGGLVQAGGSLRLSCAASGIIFGRNAMGWYRQAPGKERELVAGITRRGSITYYADSVKGRFTISRDNAKNTVYLQMNSLKPEDTAVYYCAADPASPAPGDYWGQGTQVTVSS
notes: also called AeroNab6 MASC monomer; Parent clone (NbCOV6)
IC50, inhibition of pseudovirus infection of ACE2 expressing HEK293T cells [1]: 2 µM
EC50 [2]: 0.19 µM
Kd [3]: 0.041 µM

B2: mNb6-tri (trivalent mNb6 with a 20 amino acid linker) (VHH)
chain: QVQLVESGGGLVQAGGSLRLSCAASGYIFGRNAMGWYRQAPGKERELVAGITRRGSITYYADSVKGRFTISRDNAKNTVYLQMNSLKPEDTAVYYCAADPASPAYGDYWGQGTQVTVSSGGGGSGGGGSGGGGSGGGGSQVQLVESGGGLVQAGGSLRLSCAASGYIFGRNAMGWYRQAPGKERELVAGITRRGSITYYADSVKGRFTISRDNAKNTVYLQMNSLKPEDTAVYYCAADPASPAYGDYWGQGTQVTVSSGGGGSGGGGSGGGGSGGGGSQVQLVESGGGLVQAGGSLRLSCAASGYIFGRNAMGWYRQAPGKERELVAGITRRGSITYYADSVKGRFTISRDNAKNTVYLQMNSLKPEDTAVYYCAADPASPAYGDYWGQGTQVTVSS
IC50, pseudovirus infection assay [1]: 120 pM and 5 ng/mL

B3: Nb6-tri (trivalent Nb6 with two 20 amino acid linkers) (VHH)
chain: B2 chain with Y27I, Y105P, Y166I, Y244P, Y305I, Y383P
IC50, inhibition of pseudovirus infection of ACE2 expressing HEK293T cells [1]: 0.0012 µM
fold enhancement of inhibitory activity against Nb6, pseudovirus [1]: 2000 fold

B4: Nb11 (clone pNbCOV011A) (VHH)
VHH: HVQLVESGGGLVQAGGSLRLSCAVSGASAERVGWFRRAPGKEREFVAAIGANGGSTNYLDSVKGRFTISRDNAKNTVYLQMNSLKPQDTAVYYCAARNLETFDYTYWGRGTQVTVSS
IC50, inhibition of pseudovirus infection of ACE2 expressing HEK293T cells [4]: 2.4 µM
